Source: EP4484444A1 (Centre National de la Recherche Scientifique, dated 2025)

T1: human BMP-1 (bone morphogenetic protein-1) fused to a C-terminal Flag tag (human, UniProt P13497-2 121-730, limits assumed)
T1 construct: Produced in HEK 293-EBNA cells; also called full-length BMP-1; not shown: C-terminal Flag tag
T1 sequence (looked up): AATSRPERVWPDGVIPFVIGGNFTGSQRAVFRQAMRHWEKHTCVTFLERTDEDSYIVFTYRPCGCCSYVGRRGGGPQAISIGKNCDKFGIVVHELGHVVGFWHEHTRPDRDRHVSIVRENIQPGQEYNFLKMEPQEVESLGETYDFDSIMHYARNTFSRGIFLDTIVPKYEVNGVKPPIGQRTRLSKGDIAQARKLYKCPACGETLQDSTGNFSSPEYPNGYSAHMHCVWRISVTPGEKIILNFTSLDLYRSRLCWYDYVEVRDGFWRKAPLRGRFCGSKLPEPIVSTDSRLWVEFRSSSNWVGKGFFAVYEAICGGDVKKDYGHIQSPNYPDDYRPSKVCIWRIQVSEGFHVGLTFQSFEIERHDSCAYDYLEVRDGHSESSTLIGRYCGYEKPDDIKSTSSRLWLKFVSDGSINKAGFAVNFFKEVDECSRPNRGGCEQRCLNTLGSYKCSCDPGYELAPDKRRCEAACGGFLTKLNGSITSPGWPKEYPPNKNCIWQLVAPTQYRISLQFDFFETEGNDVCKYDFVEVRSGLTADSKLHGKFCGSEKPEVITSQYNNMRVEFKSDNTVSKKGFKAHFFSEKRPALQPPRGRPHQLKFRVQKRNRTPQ

B1: C1(R44A,F78A,R79D)-C2(L101A) (other)
chain: GPASQSPERPVFTCGGILTGESGFIGSEGFPGVYPPNSKCTWKITVPEGKVVVLNFAFIDLESDNLCRYDFVDVYNGHANGQRIGRFCGTADPGALVSSGNKMMVQMISDANTAGNGFMAMFSAAEPNERGDQYCGGLLDRPSGSFKTPNWPDRDYPAGVTCVWHIVAPKNQLIELKFEKFDVERDNYCRYDYVAVFNGGEVNDARRIGKYCGDSPPAPIVSERNELLIQFLSDASLTADGFIGHYIFRPKKLEHHHHHH
notes: also called C1-C2 with the combination of the 4 mutations
B2: C2NTR (CUB2 and NTR domains of PCPE-2) (other)
chain: ETGHHHHHHCGGLLDRPSGSFKTPNWPDRDYPAGVTCVWHIVAPKNQLIELKFEKFDVERDNYCRYDYVAVFNGGEVNDARRIGKYCGDSPPAPIVSERNELLIQFLSDLSLTADGFIGHYIFRPKKLPTTTEQPVTTTFPVTTGLKPTVALCQQKCRRTGTLEGNYCSSDFVLAGTVITTITRDGSLHATVSIINIYKEGNLAIQQAGKNMSARLTVVCKQCPLLRRGLNYIIMGQVGEDGRGKIMPNSFIMMFKTKNQKLLDALKNKQC
notes: also called CUB2NTR
B3: C-propeptide III (C-propeptide of procollagen III) (other, UniProt P02461 1222-1466, looked up)
chain: DEPMDFKINTDEIMTSLKSVNGQIESLISPDGSRKNPARNCRDLKFCHPELKSGEYWVDPNQGCKLDAIKVFCNMETGETCISANPLNVPRKHWWTDSSAEKKHVWFGESMDGGFQFSYGNPELPEDVLDVHLAFLRLLSSRASQNITYHCKNSIAYMDQASGNVKKALKLMGSNEGEFKAEGNSKFTYTVLEDGCTKHTGEWSKTVFEYRTRKAVRLPIVDIAPYDIGGPDQEFGVDVGPVCFL
notes: domain: C-propeptide; Described as an uncleavable substrate mimic; Immobilized in SPR (351 RU); also called C-propeptide of collagen III
B4: recombinant human PCPE-2 (procollagen C-proteinase enhancer 2) fused to a 6 Histidine-tag at the N-terminus (other)
chain: HHHHHHQSPERPVFTCGGILTGESGFIGSEGFPGVYPPNSKCTWKITVPEGKVVVLNFRFIDLESDNLCRYDFVDVYNGHANGQRIGRFCGTFRPGALVSSGNKMMVQMISDANTAGNGFMAMFSAAEPNERGDQYCGGLLDRPSGSFKTPNWPDRDYPAGVTCVWHIVAPKNQLIELKFEKFDVERDNYCRYDYVAVFNGGEVNDARRIGKYCGDSPPAPIVSERNELLIQFLSDLSLTADGFIGHYIFRPKKLPTTTEQPVTTTFPVTTGLKPTVALCQQKCRRTGTLEGNYCSSDFVLAGTVITTITRDGSLHATVSIINIYKEGNLAIQQAGKNMSARLTVVCKQCPLLRRGLNYIIMGQVGEDGRGKIMPNSFIMMFKTKNQKLLDALKNKQC
notes: Produced in HEK 293-T cells from pHLsec; Used as analyte and as immobilized ligand in SPR and in the activity assays; also called full-length PCPE-2
B5: catalytic domain of BMP-1 (enzyme, UniProt P13497 121-320, looked up)
chain: AATSRPERVWPDGVIPFVIGGNFTGSQRAVFRQAMRHWEKHTCVTFLERTDEDSYIVFTYRPCGCCSYVGRRGGGPQAISIGKNCDKFGIVVHELGHVVGFWHEHTRPDRDRHVSIVRENIQPGQEYNFLKMEPQEVESLGETYDFDSIMHYARNTFSRGIFLDTIVPKYEVNGVKPPIGQRTRLSKGDIAQARKLYKCP
notes: domain: catalytic domain; also called BMP-1cat
B6: NTR domain of PCPE-2 (other, human, UniProt Q9UKZ9 297-415, looked up)
chain: CQQKCRRTGTLEGNYCSSDFVLAGTVITTITRDGSLHATVSIINIYKEGNLAIQQAGKNMSARLTVVCKQCPLLRRGLNYIIMGQVGEDGRGKIMPNSFIMMFKTKNQKLLDALKNKQC
notes: domain: NTR
B7: CUB1CUB2* domains of PCPE-2 (other)
chain: GPASQSPERPVFTCGGILTGESGFIGSEGFPGVYPPNSKCTWKITVPEGKVVVLNFRFIDLESDNLCRYDFVDVYNGHANGQRIGRFCGTFRPGALVSSGNKMMVQMISDANTAGNGFMAMFSAAEPNERGDQYCGGLLDRPSGSFKTPNWPDRDYPAGVTCVWHIVAPKNQLIELKFEKFDVERDNYCRYDYVAVFNGGEVNDARRIGKYCGDSPPAPIVSERNELLIQFLSDLSLTADGFIGHYIFRPKLEVLFQ
notes: Two O-glycosylated forms are seen on the gel; also called C1-C2*; the CUB domains of PCPE-2

Key:
[1] = target: T2, mini-procollagen III (fused to a N-terminal c-myc tag) (UniProt P02461 1098-1466); assay: SPR, analyte over immobilized mini-procollagen III (437 RU)
T2 construct: also called Mini-III; not shown: N-terminal c-myc tag

[2] = target: T1, human BMP-1 (bone morphogenetic …); assay: SPR (Figure 65)
[3] = target: T1, human BMP-1 (bone morphogenetic …); assay: SPR over immobilized BMP-1
[4] = target: B4; assay: SPR, PCPE-2 over immobilized C-propeptide III (351 RU)
[5] = target: T1, human BMP-1 (bone morphogenetic …); assay: SPR, PCPE-2 1.56-100 nM over immobilized BMP-1 (974 RU), steady-state fit
[6] = target: T1, human BMP-1 (bone morphogenetic …); assay: inhibition of BMP-1 (7 nM) cleavage of the fluorogenic peptide Mca-YVADAPK(Dnp)-OH, Morrison equation (apparent Ki)
[7] = target: CPIII-Long (model substrate derived from procollagen III); assay: cell-based or functional assay
[8] = target: B4; assay: SPR, analyte over immobilized PCPE-2 (646 RU)
[9] = target: T1, human BMP-1 (bone morphogenetic …); assay: SPR, analyte over immobilized BMP-1 (974 RU)
[10] = target: T2, mini-procollagen III (fused to a …); assay: SPR, analyte over immobilized mini-procollagen III (435 RU)
[11] = target: T1, human BMP-1 (bone morphogenetic …); assay: SPR, C1-C2* 1.56-100 nM over immobilized BMP-1 (974 RU), steady-state fit
[12] = target: T2, mini-procollagen III (fused to a …); assay: SPR, CUB1CUB2* 0.78-50 nM over immobilized mini-procollagen III (435 RU)

B1: no binding (tested: 50 nM) [1]; binds [2].

B2: binds [3].

B3 was tested, and the Kd [4] was 45 nM.

B4 was tested, and the Kd [5] was 8.4 nM, the Ki [6] was 2.8 nM and the “maximum enhancement factor of CPIII-Long processing by BMP-1 (ratios 0:1 to 6:1)” value [7] was 1.3 fold.

B5: no binding (tested: 50 nM) [8].

B6: no binding (tested: 50 nM) [9]; no binding (tested: 200 nM) [10].

B7 was tested, and the Kd [11] was 28 nM and the Kd [12] was roughly 30 nM.
